Results published in the supplement of paper PMC10065799, “High-throughput profiling of sequence recognition by tyrosine kinases and SH2 domains using bacterial peptide display” (eLife, 2023).

Key:
c-Src SH2 = test: SH2 binding enrichment of the phosphorylated peptide, bacterial display (enrichment ratio); higher = better substrate or ligand; peptides without Tyr show the background
Grb2 SH2 = Grb2 SH2 (UniProt P62993); test: as above
SHP2-C SH2 = test: as above
c-Abl (mouse) = test: phosphorylation enrichment, bacterial display (enrichment ratio); higher = better substrate or ligand; peptides without Tyr show the background
AncSZ = test: as above
EPHB1 = EPHB1 (UniProt P54762); test: as above
Sequence of EPHB1 (P54762 whole entry, looked up): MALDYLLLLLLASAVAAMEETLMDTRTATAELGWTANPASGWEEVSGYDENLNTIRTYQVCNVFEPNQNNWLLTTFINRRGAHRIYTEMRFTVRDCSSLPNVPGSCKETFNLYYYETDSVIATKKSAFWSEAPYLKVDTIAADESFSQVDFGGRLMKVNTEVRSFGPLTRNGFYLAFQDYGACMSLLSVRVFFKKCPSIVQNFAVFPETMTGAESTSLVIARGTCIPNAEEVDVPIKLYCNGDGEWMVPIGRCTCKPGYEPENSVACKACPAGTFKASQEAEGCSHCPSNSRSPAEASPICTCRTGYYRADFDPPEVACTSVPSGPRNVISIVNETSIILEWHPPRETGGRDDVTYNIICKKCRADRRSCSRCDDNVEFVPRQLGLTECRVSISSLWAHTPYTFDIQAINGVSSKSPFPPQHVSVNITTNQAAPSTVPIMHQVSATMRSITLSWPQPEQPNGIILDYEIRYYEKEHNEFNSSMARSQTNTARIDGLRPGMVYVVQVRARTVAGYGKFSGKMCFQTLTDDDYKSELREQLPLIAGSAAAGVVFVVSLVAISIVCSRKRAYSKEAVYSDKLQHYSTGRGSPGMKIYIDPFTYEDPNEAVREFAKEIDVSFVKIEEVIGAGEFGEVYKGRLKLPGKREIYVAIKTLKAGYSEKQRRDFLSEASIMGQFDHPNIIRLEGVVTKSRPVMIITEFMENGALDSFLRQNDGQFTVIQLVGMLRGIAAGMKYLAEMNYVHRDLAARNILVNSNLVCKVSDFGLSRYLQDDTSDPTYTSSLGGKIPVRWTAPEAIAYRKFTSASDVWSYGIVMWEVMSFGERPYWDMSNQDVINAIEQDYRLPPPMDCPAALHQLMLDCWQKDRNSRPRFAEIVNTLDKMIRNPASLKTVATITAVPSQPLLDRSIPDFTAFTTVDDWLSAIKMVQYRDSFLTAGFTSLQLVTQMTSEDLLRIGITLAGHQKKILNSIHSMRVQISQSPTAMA

Hck = Hck (UniProt P08631); test: as above
Sequence of Hck (P08631 whole entry, looked up): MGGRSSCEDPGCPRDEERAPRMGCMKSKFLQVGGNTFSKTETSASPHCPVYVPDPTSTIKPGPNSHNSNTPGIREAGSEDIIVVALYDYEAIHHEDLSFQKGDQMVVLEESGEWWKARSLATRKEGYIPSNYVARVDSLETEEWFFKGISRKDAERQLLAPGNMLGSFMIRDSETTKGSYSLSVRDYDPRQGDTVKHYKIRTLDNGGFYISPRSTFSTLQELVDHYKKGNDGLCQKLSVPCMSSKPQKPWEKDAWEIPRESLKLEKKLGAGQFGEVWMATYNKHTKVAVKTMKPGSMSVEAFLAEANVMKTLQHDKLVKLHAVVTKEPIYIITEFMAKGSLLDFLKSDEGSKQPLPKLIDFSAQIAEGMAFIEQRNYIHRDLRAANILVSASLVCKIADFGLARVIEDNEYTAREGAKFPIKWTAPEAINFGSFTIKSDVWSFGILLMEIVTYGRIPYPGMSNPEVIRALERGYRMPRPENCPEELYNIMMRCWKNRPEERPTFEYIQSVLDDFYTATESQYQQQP

Jak2 = Jak2 (UniProt O60674); test: as above
Sequence of Jak2 (O60674 whole entry, looked up): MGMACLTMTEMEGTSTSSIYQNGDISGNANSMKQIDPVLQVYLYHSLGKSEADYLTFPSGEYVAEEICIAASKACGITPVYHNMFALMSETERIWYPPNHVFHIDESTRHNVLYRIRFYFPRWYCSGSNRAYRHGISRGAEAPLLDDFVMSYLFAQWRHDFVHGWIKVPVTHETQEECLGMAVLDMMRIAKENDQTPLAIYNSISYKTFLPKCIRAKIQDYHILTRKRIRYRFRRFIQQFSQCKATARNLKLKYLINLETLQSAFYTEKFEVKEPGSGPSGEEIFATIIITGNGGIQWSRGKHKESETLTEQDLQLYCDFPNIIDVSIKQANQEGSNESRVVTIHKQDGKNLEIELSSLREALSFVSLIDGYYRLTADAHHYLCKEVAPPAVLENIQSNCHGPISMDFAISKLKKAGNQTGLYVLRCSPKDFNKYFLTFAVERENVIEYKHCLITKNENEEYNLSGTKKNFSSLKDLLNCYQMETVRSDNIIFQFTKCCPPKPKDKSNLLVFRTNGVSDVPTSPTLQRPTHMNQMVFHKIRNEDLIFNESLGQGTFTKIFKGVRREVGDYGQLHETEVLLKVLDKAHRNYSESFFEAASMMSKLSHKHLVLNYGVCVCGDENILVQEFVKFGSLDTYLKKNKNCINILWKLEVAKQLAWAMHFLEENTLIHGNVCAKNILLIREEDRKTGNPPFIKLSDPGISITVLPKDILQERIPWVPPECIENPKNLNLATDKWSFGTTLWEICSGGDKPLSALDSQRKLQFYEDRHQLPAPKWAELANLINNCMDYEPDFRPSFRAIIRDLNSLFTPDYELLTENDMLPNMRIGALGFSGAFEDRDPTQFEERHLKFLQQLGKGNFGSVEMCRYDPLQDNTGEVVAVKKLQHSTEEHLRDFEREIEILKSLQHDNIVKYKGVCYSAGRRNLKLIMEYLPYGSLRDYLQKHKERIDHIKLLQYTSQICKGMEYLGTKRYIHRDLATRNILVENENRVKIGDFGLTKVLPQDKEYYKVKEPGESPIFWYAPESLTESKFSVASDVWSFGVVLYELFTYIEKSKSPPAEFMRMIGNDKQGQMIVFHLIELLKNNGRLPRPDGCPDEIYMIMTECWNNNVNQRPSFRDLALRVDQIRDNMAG

Fer (mouse) = test: as above
MERTK = MERTK (UniProt Q12866); test: as above
FGFR1 = FGFR1 (UniProt P11362); test: as above
Fyn = Fyn (UniProt P06241); test: as above
EPHB2 = EPHB2 (UniProt P29323); test: as above
Sequence of EPHB2 (P29323 whole entry, looked up): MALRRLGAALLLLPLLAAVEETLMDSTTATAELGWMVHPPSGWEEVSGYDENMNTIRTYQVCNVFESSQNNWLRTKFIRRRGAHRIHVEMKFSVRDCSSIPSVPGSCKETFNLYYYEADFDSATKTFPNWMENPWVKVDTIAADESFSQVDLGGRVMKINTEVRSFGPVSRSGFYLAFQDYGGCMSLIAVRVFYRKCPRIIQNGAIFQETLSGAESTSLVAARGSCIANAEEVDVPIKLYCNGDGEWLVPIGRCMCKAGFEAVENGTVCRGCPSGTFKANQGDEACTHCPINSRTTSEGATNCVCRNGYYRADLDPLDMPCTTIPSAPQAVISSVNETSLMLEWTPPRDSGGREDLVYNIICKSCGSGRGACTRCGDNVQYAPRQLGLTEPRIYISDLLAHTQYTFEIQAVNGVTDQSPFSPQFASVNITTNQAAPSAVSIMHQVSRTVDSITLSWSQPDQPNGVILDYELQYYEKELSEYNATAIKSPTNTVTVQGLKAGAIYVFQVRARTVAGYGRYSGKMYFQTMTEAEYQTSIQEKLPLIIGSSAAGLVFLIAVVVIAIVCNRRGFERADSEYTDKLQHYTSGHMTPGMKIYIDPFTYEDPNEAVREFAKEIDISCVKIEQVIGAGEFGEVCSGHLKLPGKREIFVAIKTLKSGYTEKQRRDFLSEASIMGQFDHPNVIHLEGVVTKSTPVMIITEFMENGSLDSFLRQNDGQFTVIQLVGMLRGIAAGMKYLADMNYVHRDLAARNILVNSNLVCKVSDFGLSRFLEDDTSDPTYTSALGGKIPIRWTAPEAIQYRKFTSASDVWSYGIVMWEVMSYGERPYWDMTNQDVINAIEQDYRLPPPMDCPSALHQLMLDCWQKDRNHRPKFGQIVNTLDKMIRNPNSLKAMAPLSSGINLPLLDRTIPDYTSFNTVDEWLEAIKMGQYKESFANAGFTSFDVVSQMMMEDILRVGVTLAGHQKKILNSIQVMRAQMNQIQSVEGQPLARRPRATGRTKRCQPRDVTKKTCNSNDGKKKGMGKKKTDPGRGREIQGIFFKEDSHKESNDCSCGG

c-Src = test: as above
FGFR3 = FGFR3 (UniProt P22607); test: as above
Fes = Fes (UniProt P07332); test: as above
Sequence of Fes (P07332 whole entry, looked up, the tested form may be a part): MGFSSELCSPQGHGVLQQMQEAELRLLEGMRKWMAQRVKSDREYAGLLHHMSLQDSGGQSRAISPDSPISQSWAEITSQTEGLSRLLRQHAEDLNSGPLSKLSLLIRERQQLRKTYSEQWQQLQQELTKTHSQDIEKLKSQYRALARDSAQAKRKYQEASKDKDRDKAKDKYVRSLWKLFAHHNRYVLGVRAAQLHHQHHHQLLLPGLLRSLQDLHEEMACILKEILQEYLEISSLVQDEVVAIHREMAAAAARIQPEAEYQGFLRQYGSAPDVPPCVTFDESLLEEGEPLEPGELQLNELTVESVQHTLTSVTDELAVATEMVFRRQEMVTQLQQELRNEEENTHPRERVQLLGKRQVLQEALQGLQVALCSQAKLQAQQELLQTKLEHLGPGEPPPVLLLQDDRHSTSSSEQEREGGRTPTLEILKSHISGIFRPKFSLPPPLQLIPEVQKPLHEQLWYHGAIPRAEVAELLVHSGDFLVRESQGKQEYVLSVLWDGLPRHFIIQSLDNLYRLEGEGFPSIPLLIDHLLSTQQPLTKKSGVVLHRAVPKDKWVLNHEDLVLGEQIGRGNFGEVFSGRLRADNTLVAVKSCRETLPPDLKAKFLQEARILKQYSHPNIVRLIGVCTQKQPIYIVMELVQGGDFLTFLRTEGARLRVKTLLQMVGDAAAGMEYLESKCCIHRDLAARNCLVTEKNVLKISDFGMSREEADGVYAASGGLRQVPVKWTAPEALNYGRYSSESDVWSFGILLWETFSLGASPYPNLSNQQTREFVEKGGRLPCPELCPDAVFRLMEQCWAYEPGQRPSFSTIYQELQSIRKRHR
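For SH2 binding enrichment of the phosphorylated peptide, bacterial display in this document: peptide library displayed on the E. coli surface as eCPX fusions, selected cells deep-sequenced, score is each peptide's frequency after selection divided by its frequency in the input.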
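For phosphorylation enrichment, bacterial display in this document: 11-residue human phosphosite peptides and single-mutation variants displayed on the E. coli surface, counted by deep sequencing, each peptide's frequency after selection divided by its frequency in the unselected input library; frequency after pTyr selection over input frequency; kinase dosed for 20-30% of maximal phosphorylation in three min.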

Sequence of Grb2 SH2 (P62993 whole entry, looked up): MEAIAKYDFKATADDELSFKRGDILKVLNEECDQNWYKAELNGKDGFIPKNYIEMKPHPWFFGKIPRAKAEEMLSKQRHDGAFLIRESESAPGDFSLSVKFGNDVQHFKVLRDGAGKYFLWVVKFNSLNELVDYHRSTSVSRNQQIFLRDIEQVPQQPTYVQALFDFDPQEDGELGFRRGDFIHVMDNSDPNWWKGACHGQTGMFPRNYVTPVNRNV

Row | Sequence | SH2 binding enrichment (c-Src SH2) | SH2 binding enrichment (Grb2 SH2) | SH2 binding enrichment (SHP2-C SH2) | phosphorylation enrichment (c-Abl (mouse)) | phosphorylation enrichment (AncSZ) | phosphorylation enrichment (EPHB1) | phosphorylation enrichment (Hck) | phosphorylation enrichment (Jak2) | phosphorylation enrichment (Fer (mouse)) | phosphorylation enrichment (MERTK) | phosphorylation enrichment (FGFR1) | phosphorylation enrichment (Fyn) | phosphorylation enrichment (EPHB2) | phosphorylation enrichment (c-Src) | phosphorylation enrichment (FGFR3) | phosphorylation enrichment (Fes)
1 | PQIVKYRPDCI [LDHB_Y128_S129R] | 0.671 | 1.26 | 0.817 | 0.069 | 0.89 | 0.627 | 0.238 | 0.391 | 0.12 | 0.133 | 0.302 | 0.699 | 0.131 | 0.663 | 0.537 | 0.839
2 | PRDSGYSFETI [MAP1B_Y1921_S1917R_YF] | 1.5 | 1.1 | 0.742 | 1.63 | 1.25 | 0.657 | 0.823 | 2.36 | 1.33 | 0.755 | 0.912 | 0.581 | 1.22 | 1.31 | 1.14 | 1.89
3 | PSNTDYPGPHS [TP63_Y171] | 0.401 | 0.792 | 0.58 | 1.01 | 0.809 | 0.589 | 0.482 | 0.768 | 0.582 | 0.552 | 0.511 | 0.438 | 0.661 | 0.5 | 0.722 | 0.909
4 | PSPMPCASCQM [FOXL2_Y215_Y215C] | 0.523 | 0.797 | 0.606 | 0.799 | 0.541 | 0.354 | 0.41 | 0.766 | 0.488 | 0.588 | 0.445 | 0.603 | 0.287 | 0.37 | 0.559 | 0.516
5 | PSVVAYPKRSQ [MARK3_Y432] | 0.367 | 0.554 | 0.476 | 0.522 | 0.834 | 0.517 | 0.573 | 0.531 | 0.531 | 0.409 | 0.39 | 0.565 | 0.413 | 0.309 | 0.949 | 0.793
6 | PTTKTYFPHFG [HBA1_Y43_D48G] | 0.5 | 1.06 | 0.792 | 0.491 | 0.658 | 0.543 | 0.372 | 0.958 | 0.435 | 0.397 | 0.501 | 0.458 | 0.322 | 0.747 | 0.556 | 0.645
7 | PVDVAYRRGFF [PLEC_Y2967_YF] | 0.56 | 0.696 | 0.599 | 0.574 | 0.909 | 0.456 | 0.595 | 0.728 | 0.584 | 0.586 | 0.504 | 0.424 | 0.44 | 0.475 | 0.535 | 0.833
8 | PVGVLYKVKVF [PTS_Y128_YF] | 0.418 | 0.706 | 0.607 | 0.882 | 1.45 | 1.14 | 0.619 | 1.21 | 0.659 | 0.381 | 0.842 | 0.716 | 0.906 | 0.388 | 1.4 | 1.61
9 | PVKTPYSLKRW [BMPR2_Y979_R974P] | 0.992 | 1.46 | 1.2 | 1.14 | 1.04 | 0.499 | 0.427 | 1.36 | 0.609 | 0.586 | 0.653 | 0.63 | 0.84 | 0.987 | 0.789 | 1.49
10 | PYRFIYMAVQH [PTPN11_Y515_Q510P] | 0.759 | 1.07 | 1.12 | 1.67 | 1.92 | 3.56 | 5.48 | 1.08 | 2.9 | 2.14 | 1.87 | 5.01 | 2.45 | 3.36 | 1.76 | 2.08
11 | PYSEPYADYGG [APBA1_Y187] | 6.47 | 0.675 | 0.651 | 1.03 | 2.11 | 1.04 | 1.41 | 1.56 | 1.34 | 0.911 | 3.21 | 1.89 | 1.18 | 4.44 | 2.23 | 1.72
12 | QADVTYVNTQL [MERTK_Y872_I871T] | 0.964 | 14.4 | 0.84 | 1.11 | 1.11 | 0.717 | 0.518 | 0.703 | 0.714 | 0.522 | 0.504 | 0.518 | 0.584 | 0.682 | 0.606 | 0.942
13 | QAFSWYQHQRA [NDST1_Y714_R709Q_YF] | 0.709 | 0.778 | 0.86 | 0.731 | 1.61 | 1.03 | 0.547 | 1.43 | 0.863 | 0.569 | 0.687 | 0.658 | 0.71 | 0.371 | 1.02 | 1.64
14 | QAINEYEKWLE [MAP9_Y603] | 0.655 | 0.707 | 0.882 | 1.06 | 2.34 | 1.67 | 1.2 | 1.73 | 0.961 | 0.663 | 1.12 | 1 | 1.03 | 0.631 | 1.39 | 1.81
15 | QDDTVYMGKVI [DCTN1_Y1244_T1249I] | 0.389 | 1.05 | 0.427 | 2.06 | 1.72 | 0.873 | 1.33 | 1.57 | 0.943 | 0.765 | 0.913 | 1.45 | 0.841 | 0.942 | 0.938 | 1.72
16 | QDDYSYPSRQM [LDLR_Y847_G844D] | 1.06 | 0.93 | 0.564 | 4.49 | 13.3 | 3.54 | 1.02 | 1.74 | 1.66 | 1.13 | 2.04 | 1.46 | 7.79 | 1.02 | 1.66 | 2.17
17 | QEALEYFMKQT [PIK3CA_Y1038_M1043T] | 0.41 | 0.584 | 0.685 | 1.85 | 3.3 | 1.31 | 1.05 | 3.01 | 1.82 | 0.813 | 1.67 | 1.93 | 1.64 | 1.6 | 2.76 | 3.76

Row | Sequence | SH2 binding enrichment (c-Src SH2) | SH2 binding enrichment (Grb2 SH2) | SH2 binding enrichment (SHP2-C SH2) | phosphorylation enrichment (c-Abl (mouse)) | phosphorylation enrichment (AncSZ) | phosphorylation enrichment (EPHB1) | phosphorylation enrichment (Hck) | phosphorylation enrichment (Jak2) | phosphorylation enrichment (Fer (mouse)) | phosphorylation enrichment (MERTK) | phosphorylation enrichment (FGFR1) | phosphorylation enrichment (Fyn) | phosphorylation enrichment (EPHB2) | phosphorylation enrichment (c-Src) | phosphorylation enrichment (FGFR3) | phosphorylation enrichment (Fes)
18 | QFNPEYVQQAS [LRRC7_Y1058_H1054Y_YF] | 0.458 | 0.871 | 0.642 | 0.904 | 1.79 | 1.02 | 0.792 | 1.3 | 0.648 | 0.638 | 0.741 | 0.687 | 0.778 | 0.518 | 0.761 | 1.46
19 | QGIPWYHSQSP [FOXF1_Y331_R330W] | 1.15 | 1.43 | 1.14 | 0.633 | 0.645 | 0.435 | 0.547 | 0.977 | 0.533 | 0.517 | 0.571 | 0.46 | 0.503 | 0.601 | 0.441 | 0.642
20 | QITQVCGFYDE [PPP2CA_Y127_Y127C] | 0.747 | 0.963 | 0.58 | 1.08 | 1.21 | 1.1 | 0.865 | 1.19 | 0.856 | 0.522 | 0.648 | 0.636 | 0.849 | 0.823 | 0.995 | 1.57
21 | QKLPLYILENN [VPS13B_Y2774_S2773L] | 0.642 | 0.746 | 0.802 | 1 | 0.967 | 0.942 | 0.709 | 1.06 | 0.551 | 0.758 | 0.81 | 0.556 | 0.607 | 0.964 | 0.761 | 1.28
22 | QLRPGYIPIPV [BAG3_Y93] | 0.493 | 0.848 | 0.585 | 0.796 | 0.953 | 0.774 | 0.639 | 1.08 | 0.645 | 0.772 | 0.735 | 0.736 | 0.592 | 0.734 | 1.09 | 0.915
23 | QMQAAYQKVVA [HBD_Y131] | 0.937 | 1.03 | 0.418 | 0.422 | 0.504 | 0.373 | 0.47 | 0.497 | 0.519 | 0.412 | 0.419 | 0.47 | 0.441 | 0.293 | 0.72 | 0.578
24 | QMVGMYAFSYM [AVPR2_Y124_S126F] | 0.562 | 0.638 | 0.651 | 1.27 | 2.25 | 2.45 | 1.52 | 1.44 | 4.47 | 6.65 | 0.804 | 1.55 | 1.84 | 1.35 | 1.15 | 1.86
25 | QNRELYSEGLG [CNKSR1_Y665] | 0.536 | 0.74 | 0.616 | 1.33 | 0.516 | 0.536 | 0.895 | 0.497 | 0.309 | 0.443 | 0.578 | 0.434 | 0.454 | 0.446 | 0.397 | 0.789
26 | QNTGGYYDLYG [PTPN11_Y62_D61G] | 7.13 | 1 | 0.755 | 1.01 | 1.32 | 1.85 | 8.85 | 6.15 | 2.69 | 8.88 | 13.8 | 8.15 | 2.78 | 5.87 | 10 | 1.64
27 | QPEDIYHQTWA [GBA_Y244_G241E] | 0.61 | 1.09 | 0.93 | 9.69 | 2 | 0.843 | 4.47 | 0.955 | 3.02 | 3.42 | 6.95 | 7.34 | 0.673 | 5.92 | 4.93 | 1.09
28 | QQLQGYIPSNF [FRK_Y99_YF] | 0.47 | 0.674 | 0.519 | 0.899 | 1.11 | 0.763 | 0.647 | 0.981 | 0.679 | 0.878 | 0.884 | 0.938 | 0.881 | 0.546 | 1.09 | 1.29
29 | QQLVAYYSKHA [SRC_Y232] | 0.62 | 0.851 | 0.632 | 0.934 | 1.75 | 0.765 | 0.781 | 1.3 | 0.559 | 0.944 | 0.71 | 0.723 | 0.916 | 1.02 | 1.14 | 1.15
30 | QQLVAYYSKHT [SRC_Y232_A237T] | 0.823 | 0.865 | 1.48 | 0.906 | 1.13 | 1.42 | 0.653 | 0.932 | 0.42 | 0.629 | 0.818 | 0.889 | 0.92 | 0.591 | 0.926 | 0.951
31 | QRPGPYDRPGA [HNRNPH2_Y210] | 1.05 | 0.972 | 1.03 | 0.496 | 0.556 | 0.453 | 0.705 | 0.439 | 0.281 | 0.426 | 0.43 | 0.322 | 0.466 | 0.386 | 0.48 | 0.812
32 | QRPYVYYYSYL [PTEN_Y176_R173P] | 0.734 | 1.17 | 1.14 | 1.59 | 2.26 | 4.84 | 3.7 | 6.45 | 2 | 8.05 | 9.79 | 3.38 | 4.08 | 5.34 | 7.23 | 2.35
33 | QTEAPYRFIYM [PTPN11_Y511_Q510P] | 0.469 | 0.84 | 0.783 | 1.15 | 1.41 | 0.93 | 0.984 | 1.22 | 11 | 1.4 | 7.24 | 0.697 | 1.25 | 1.93 | 5.25 | 1.6
